# Measured values: article PMC3232311 (Biochemistry, 2011)
# Biological target: the molecule itself
# Assay: SEC
protein,measurement,value
"Mycobacterium smegmatis mycothiol S-transferase (MSMEG_0887), native enzyme (enzyme, UniProt A0QQV2 1-185, looked up) MTAREPTTKTSTGSVNESAAVRELLRDAFTRLIEHVDDLTDGLTEEVSSYRPTPEANSIAWLLWHSARCQDMQLCDIAGVEQVWTRDGWIDRFDLGLPPDDIGYGHSPEEVAKVQAPAELLAGYYHAVHKVTLEYIATVTPGEMDRVVDTNWNPPVTASARLISIIDDCAQHLGQAAYLRGIIPR",stoichiometry N,2
